From patent US20160068860A1, “TRANSGENIC PLANTS” (CONSEJO SUPERIOR DE INVESTIGACIONES CIENTIFICAS (CSIC), priority 2013, published 2016)

Tests used:
[1] = test system: 6His-ΔNPP2CA; experiment: Binding assay with 6His-ΔNPP2CA (Ni-affinity co-purification, size exclusion, pull-down); design: species or system Arabidopsis; details: for pull-down interaction with PP2CA: absence or presence of 100 μM ABA
Description: For small scale protein purifications, E. coli BL21 (DE3) cells transformed with the corresponding constructs were grown in 100 ml of LB medium to an OD600 of 0.6-0.8. At this point 1 mM isopropyl-β-D-thiogalactoside (IPTG) was added and the cells were harvested after overnight incubation at 20° C. Pellets were resuspended in lysis buffer (50 mM Tris pH 7.5, 250 mM KCl, 10% Glycerol, 1 mM β-mercaptoethanol) and lysed by sonication with a Branson Sonifier 250. The clear lysate obained after centrifugation was purified by Ni-affinity. A washing step was performed using 50 mM Tris, 250 mM KCl, 20% Glycerol, 30 mM imidazole and 1 mM […] washing buffer, and finally the protein was eluted using 50 mM Tris, 250 mM KCl, 20% Glycerol, 250 mM imidazole and 1 mM […] elution buffer For protein-protein interaction experiments, the pET28a_ΔNPP2CA, pETM11_PYL4 wt and pETM11_PYL4A194T plasmids were transformed into E. coli BL21 (DE3). A total of 8 ml of an overnight culture were sub-cultured into 800 ml fresh 2TY broth (16 g Bacto tryptone, 10 g yeast extract, 5 g NaCl per litre of solution) plus kanamycin (50 μg ml-1). Protein expression was induced with 0.3 mM IPTG and the cells were harvested after overnight incubation at 20° C. Pellets were resuspended in 25 mM TrisHCl pH 8.0, 50 mM NaCl, 50 mM imidazole, 5 mM […] and disrupted by sonication. After centrifugation (40 min, 40000 g) at 277 K, the clear supernatant was filtered (pore diameter […]; Millipore Corporation, Bedford, Mass., USA). The 6His-tagged proteins were purified using Ni-NTA Agarose (Qiagen) according to the manufacturer's instructions. The filtered supernatant was mixed with the previously equilibrated beads. After incubation, a washing step with ten volumes of 25 mM TrisHCl pH 8.0, 50 mM NaCl, 20 mM imidazole, 5 mM […] buffer was performed followed by the elution from the Ni2+ resin in a buffer with 500 mM imidazole. Imidazole was removed using a PD-10 column (GE Healthcare) and the His-tag was cleaved using TEV protease.
6His-ΔNPP2CA pellets were resuspended in 25 mM TrisHCl pH 8.0, 150 mM NaCl, 50 mM imidazole, 5 mM 3-mercaptoethanol, 5 mM Mg2+, mixed with 8 mg of either pure non-tagged (through TEV cleavage) PYL4 or PYL4A194T and disrupted by sonication. The crude extracts were treated as described above using His-Trap HP columns from GE Healthcare to the capture step according to the manufacturer's instructions. In all cases, the purified proteins were subjected to a size exclusion chromatography using a Superdex200 10/300 (Amersham Biosciences Limited, UK) to analyze the behavior in a gel filtration of each protein and to isolate the complex. […] After three washes, proteins were eluted by adding 500 mM imidazol and analyzed by SDS-PAGE.

[2] = test system: Barley plants (cv. Golden Promise); assay type: in vivo, Hordeum vulgare; details: for vegetative growth under non-stress conditions: in vivo; for drought tolerance compared to non-transformed Golden promise wt plants / fresh weight/leaf after drought / survival and vegetative growth after drought and rewatering / weight/plant after drought and rewatering: transgenic barley; for drought tolerance compared to non-transformed Golden promise wt plants: 12-d period of drought; for fresh weight/leaf after drought / survival and vegetative growth after drought and rewatering / weight/plant after drought and rewatering: compared to non-transformed plants
Excerpt: Transgenic barley (cv. Golden Promise) expressing either Arabidopsis PYL4^A194T or PYL4^H82R V97A open reading frame driven by the Ubiquitin promoter from the pBract214 vector was generated via Agrobacterium-mediated transformation (Bartlett et al. 2008).
The nucleotide sequence encoding either PYL4^A194T or PYL4^H82R V97A open reading frame was recombined by LR reaction from pCR8/GW/TOPO entry vector into the Gateway compatible pBract214 destination vector. The sequence introduced in barley is the Arabidopsis open reading frame carrying the indicated mutations. Also, the second codon (of the sequence as shown in SEQ ID NO; 2) was modified to GTT to get a Ncol site to facilitate cloning).
Immature embryos were inoculated with Agrobacterium strain AGL1 containing the over-expression vector pBract214 into which the genes of interest had been cloned. pBract214 also contains the hygromycin resistance gene to allow selection of transgenic tissues and plants. Following co-cultivation for 3 days, immature embryos were transferred to selective callus induction medium containing hygromycin to allow the selection of transformed tissue and timentin to remove Agrobacterium. After a total of 6 weeks callus induction, callus were moved to a transition medium in low light and then 2 weeks later to regeneration medium under full light. Regenerated plants were transferred to rooting tubes when shoots reached 2-3 cm in length. Plants with strong roots in hygromycin containing medium were then established in soil and grown to maturity under controlled environment conditions in order to obtain T1 seed progeny.
Barley plants (cv. Golden Promise) were routinely grown under greenhouse conditions (40-50% relative humidity, 23-24° C.) in pots containing a 1:3 vermiculite-soil mixture. Pots were grouped in trays where water was maintained approximately 0.2-1 cm above the bottom of the tray. For drought (D) stress experiments, four-week-old plants were watered with tap water for 12-d (minus D, water maintained 0.2-1 cm above the bottom of the tray) or were submitted to drought for 12-d (plus D, water withdrawal). One flag leaf per plant (10 individual plants for each genetic background, minus and plus D treatment) was weighed in order to obtain its fresh weight and dried for 16 h at 70° C. and weighed again to obtain its dry weight. After the 12 day drought period, plants that had been submitted to drought were re-watered (RW, water 1 cm above the bottom of the tray for 2-d, then water withdrawal) and weight per plant (destructive measurement to obtain above ground biomass) was obtained after 5-d (plus D, plus RW). The results obtained are described in FIGS. 9, 10 and 11.

| Molecule | pull-down interaction with PP2CA [1] | vegetative growth under non-stress conditions [2] | drought tolerance compared to non-transformed Golden promise wt plants [2] | fresh weight/leaf after drought [2] | survival and vegetative growth after drought and rewatering [2] | weight/plant after drought and rewatering [2] | co-purification with 6His-ΔNPP2CA by Ni-affinity chromatography ([1]; absence of ABA) | complex with 6His-ΔNPP2CA by size exclusion chromatography ([1]; absence of ABA) |
| --- | --- | --- | --- | --- | --- | --- | --- | --- |
| PYL4: AtPYL4 wild type ABA receptor polypeptide (SEQ ID NO:3, At2g38310) [reference compound] | dependent on the addition of ABA | – | – | – | – | – | – | – |
| PYL4H82R V97A (AtPYL H82 and V97A) (receptor, also called PYL4H82R (found combined with V97A)) MLAVHRPSSAVSDGDSVQIPMMIASFQKRFPSLSRDSTAARFHTHEVGPNQCCSAVIQEISAPISTVWSVVRRFDNPQAYKRFLKSCSVIGGDGDNAGSLRQVHVVSGLPAASSTERLDILDDERHVISFSVVGGDHRLSNYRSVTTLHPSPISGTVVVESYVVDVPPGNTKEETCDFVDVIVRCNLQSLAKIAENTAAESKKKMSL | – | did not impair vegetative growth | enhanced drought tolerance | higher fresh weight/leaf | enhanced survival and vegetative growth | higher weight/plant | – | – |
| PYL4A194T: AtPYL4 ABA receptor mutant polypeptide with A194T substitution (SEQ ID NO. 60; nucleic acid SEQ ID NO: 55); also over-expressed in plants (protein, listed as Arabidopsis thaliana) MLAVHRPSSAVSDGDSVQIPMMIASFQKRFPSLSRDSTAARFHTHEVGPNQCCSAVIQEISAPISTVWSVVRRFDNPQAYKHFLKSCSVIGGDGDNVGSLRQVHVVSGLPAASSTERLDILDDERHVISFSVVGGDHRLSNYRSVTTLHPSPISGTVVVESYVVDVPPGNTKEETCDFVDVIVRCNLQSLAKITENTAAESKKKMSL | ABA-independent binding | did not impair vegetative growth | enhanced drought tolerance | higher fresh weight/leaf | enhanced survival and vegetative growth | higher weight/plant | could be co-purified | 1:1 complex |
